Experiments:
[1] = tested on: CD8+ T cells; assay: In vitro T-cell priming assay (aAPCs loaded with peptide/MHC and anti-CD28), pMHC multimer readout; assay type: cell-based, human; details: in vitro immunogenicity of HLA class I peptides; peptide specific pMHC multimer staining after three stimulation cycles
From the text: In order to obtain information regarding the immunogenicity of the TUMAPs of the present invention, the inventors performed investigations using an in vitro T-cell priming assay based on repeated stimulations of CD8+ T cells with artificial antigen presenting cells (aAPCs) loaded with peptide/MHC complexes and anti-CD28 antibody.
In order to perform in vitro stimulations by artificial antigen presenting cells loaded with peptide-MHC complex (pMHC) and anti-CD28 antibody, the inventors first isolated CD8+ T cells from fresh HLA-A*02 leukapheresis products via positive selection using CD8 microbeads (Miltenyi Biotec, Bergisch-Gladbach, Germany) of healthy donors obtained from the University clinics Mannheim, Germany, after informed consent.
PBMCs and isolated CD8+ lymphocytes were incubated in T-cell medium (TCM) until use consisting of RPMI-Glutamax (Invitrogen, Karlsruhe, Germany) supplemented with 10% heat inactivated human AB serum (PAN-Biotech, Aidenbach, Germany), 100 U/ml Penicillin/100 μg/ml Streptomycin (Cambrex, Cologne, Germany), 1 mM sodium pyruvate (CC Pro, Oberdorla, Germany), 20 μg/ml Gentamycin (Cambrex). 2.5 ng/ml IL7 (PromoCell, Heidelberg, Germany) and 10 U/ml IL-2 (Novartis Pharma, Nurnberg, Germany) were also added to the TCM at this step.
Generation of pMHC/anti-CD28 coated beads, T-cell stimulations and readout was performed in a highly defined in vitro system using four different pMHC molecules per stimulation condition and 8 different pMHC molecules per readout condition.
The purified co-stimulatory mouse IgG2a anti human CD28 Ab 9.3 (Jung et al., 1987) was chemically biotinylated using Sulfo-N-hydroxysuccinimidobiotin as recommended by the manufacturer (Perbio, Bonn, Germany). Beads used were 5.6 μm diameter streptavidin coated polystyrene particles (Bangs Laboratories, Illinois, USA).
pMHC used for positive and negative control stimulations were A*0201/MLA-001 (peptide […] (SEQ ID NO. 303) from modified Melan-A/MART-1) and A*0201/DDX5-001 ([…] from DDX5, SEQ ID NO. 304), respectively.
800.000 beads/200 μl were coated in 96-well plates in the presence of 4×12.5 ng different biotin-pMHC, washed and 600 ng biotin anti-CD28 were added subsequently in a volume of 200 μl. Stimulations were initiated in 96-well plates by co-incubating 1×10^6 CD8+ T cells with 2×10^5 washed coated beads in 200 μl TCM supplemented with 5 ng/ml IL-12 (PromoCell) for 3 days at 37° C. Half of the medium was then exchanged by fresh TCM supplemented with 80 U/ml IL-2 and incubating was continued for 4 days at 37° C. This stimulation cycle was performed for a total of three times. For the pMHC multimer readout using 8 different pMHC molecules per condition, a two-dimensional combinatorial coding approach was used as previously described (Andersen et al., 2012) with minor modifications encompassing coupling to 5 different fluorochromes. Finally, multimeric analyses were performed by staining the cells with Live/dead near IR dye (Invitrogen, Karlsruhe, Germany), CD8-FITC antibody clone SK1 (BD, Heidelberg, Germany) and fluorescent pMHC multimers. For analysis, a BD LSRII SORP cytometer equipped with appropriate lasers and filters was used. Peptide specific cells were calculated as percentage of total CD8+ cells. Evaluation of multimeric analysis was done using the FlowJo software (Tree Star, Oregon, USA). In vitro priming of specific multimer+CD8+ lymphocytes was detected by comparing to negative control stimulations.

[2] = target: HLA-A*02 (Homo sapiens, UniProt P04439, D140Y/D185E/D98H/E176V/E277Q/G131W/G231S/I119V/I121R/I166T/I218V/L300P/N151K/N90K/P208A/P217A/Q86G/Q94H/R138H/R169H); assay: MHC binding assay by UV-ligand exchange and beta2m ELISA (HLA-A*02); details: peptide exchange yield, binding to HLA-A*02; UV-ligand exchange, beta2m ELISA
From the text: Candidate peptides for T cell based therapies according to the present invention were further tested for their MHC binding capacity (affinity). The individual peptide-MHC complexes were produced by UV-ligand exchange, where a UV-sensitive peptide is cleaved upon UV-irradiation, and exchanged with the peptide of interest as analyzed. Only peptide candidates that can effectively bind and stabilize the peptide-receptive MHC molecules prevent dissociation of the MHC complexes. To determine the yield of the exchange reaction, an ELISA was performed based on the detection of the light chain (β2m) of stabilized MHC complexes. The assay was performed as generally described in Rodenko et al. (Rodenko et al., 2006).
96 well MAXISorp plates (NUNC) were coated over night with 2 ug/ml streptavidin in PBS at room temperature, washed 4× and blocked for 1 h at 37° C. in 2% BSA containing blocking buffer. Refolded HLA-A*02:01/MLA-001 monomers served as standards, covering the range of 15-500 ng/ml. Peptide-MHC monomers of the UV-exchange reaction were diluted 100 fold in blocking buffer. Samples were incubated for 1 h at 37° C., washed four times, incubated with 2 ug/ml HRP conjugated anti-β2m for 1 h at 37° C., washed again and detected with TMB solution that is stopped with […]. Absorption was measured at 450 nm. Candidate peptides that show a high exchange yield (preferably higher than 50%, most preferred higher than 75%) are generally preferred for a generation and production of antibodies or fragments thereof, and/or T cell receptors or fragments thereof, as they show sufficient avidity to the MHC molecules and prevent dissociation of the MHC complexes.

Peptide exchange [2] | Substance | Wells positive [%] [1]
++++ (> = 75% = ++++) | 12 (GLLPLLHRA; listed as Homo sapiens) [compound 12] | ++++ (> = 70% = ++++)
++++ (> = 75% = ++++) | 4 (KLMPGTYTL; listed as Homo sapiens) [compound 4] | + (<20% = +)
++++ (> = 75% = ++++) | 249 (GLCERLVSL; listed as Homo sapiens) [compound 249] | + (<20% = +)
++++ (> = 75% = ++++) | 92 (GLLFSLRSV; listed as Homo sapiens) [compound 92] | –
++++ (> = 75% = ++++) | 125 (SLADYEHFV; listed as Homo sapiens) [compound 125] | –
++++ (> = 75% = ++++) | 1 (LLYPEPWSV; listed as Homo sapiens) [compound 1] | –
++++ (> = 75% = ++++) | 112 (SLGKFTFDV; listed as Homo sapiens) [compound 112] | –
